1 molecule from patent US20230295338A1 (YMMUNOBIO, published 2023) can be followed below.

Assay [1] has as its target T1, human CEACAM3-Fc (human, UniProt P40198 35-155, limits assumed).
T1 construct: also called recombinant CEACAM-Fc protein; not shown: human IgG Fc
T1 sequence (looked up): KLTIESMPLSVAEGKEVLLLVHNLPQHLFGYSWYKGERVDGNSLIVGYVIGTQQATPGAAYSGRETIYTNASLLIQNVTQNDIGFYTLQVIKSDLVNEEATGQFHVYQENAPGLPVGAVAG
The assay is described as follows: solid phase ELISA, CEACAM-Fc coated, mAb 5 µg/ml (FIG. 19).

In assay [2] the target is T2, human CEACAM5-Fc (human, UniProt P06731 35-685, limits assumed).
T2 construct: also called recombinant CEACAM-Fc protein; not shown: human IgG Fc
T2 sequence (looked up): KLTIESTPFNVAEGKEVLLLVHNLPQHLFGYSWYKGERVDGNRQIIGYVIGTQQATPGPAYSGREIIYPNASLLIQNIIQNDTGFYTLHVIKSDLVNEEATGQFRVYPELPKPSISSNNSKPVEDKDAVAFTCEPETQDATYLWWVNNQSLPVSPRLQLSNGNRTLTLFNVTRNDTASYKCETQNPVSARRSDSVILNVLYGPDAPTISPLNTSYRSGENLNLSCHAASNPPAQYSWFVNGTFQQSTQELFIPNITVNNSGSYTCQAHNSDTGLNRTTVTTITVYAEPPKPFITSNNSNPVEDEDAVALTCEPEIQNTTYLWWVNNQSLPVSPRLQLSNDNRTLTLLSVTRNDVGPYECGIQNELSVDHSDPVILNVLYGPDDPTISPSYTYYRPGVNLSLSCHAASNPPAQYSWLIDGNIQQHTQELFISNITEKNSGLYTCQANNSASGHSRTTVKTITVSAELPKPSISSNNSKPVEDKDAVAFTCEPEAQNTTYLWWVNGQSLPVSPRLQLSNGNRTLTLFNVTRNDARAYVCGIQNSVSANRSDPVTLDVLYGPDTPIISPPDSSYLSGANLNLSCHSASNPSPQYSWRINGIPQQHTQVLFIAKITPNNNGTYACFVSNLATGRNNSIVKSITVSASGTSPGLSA
The assay is described as above.

The target in assay [3] is T3, human CEACAM1-Fc fusion protein (human, UniProt P13688 35-428).
T3 construct: Said to comprise the entire extracellular domain of human CEACAM1; also called CEACAM1-huFc; recombinant CEACAM1-Fc; not shown: human IgG Fc (huFc)
T3 sequence: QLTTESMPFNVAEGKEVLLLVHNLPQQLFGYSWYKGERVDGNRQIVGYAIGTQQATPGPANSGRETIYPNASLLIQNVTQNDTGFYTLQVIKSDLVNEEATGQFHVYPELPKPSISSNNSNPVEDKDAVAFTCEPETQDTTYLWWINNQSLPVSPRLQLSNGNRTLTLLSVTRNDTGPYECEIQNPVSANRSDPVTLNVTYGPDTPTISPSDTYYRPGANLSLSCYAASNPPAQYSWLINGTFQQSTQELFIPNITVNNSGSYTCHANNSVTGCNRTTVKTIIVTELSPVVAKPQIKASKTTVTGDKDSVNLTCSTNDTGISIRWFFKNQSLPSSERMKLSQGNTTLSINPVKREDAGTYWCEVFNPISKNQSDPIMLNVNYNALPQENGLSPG
The assay is described as above.

Assay [4] concerns the target T4, human CEACAM3 (human, UniProt P40198 35-252).
T4 construct: whole, on cells; also called huCEACAM3; CHO transfectants expressing human CEACAM3
T4 sequence (looked up): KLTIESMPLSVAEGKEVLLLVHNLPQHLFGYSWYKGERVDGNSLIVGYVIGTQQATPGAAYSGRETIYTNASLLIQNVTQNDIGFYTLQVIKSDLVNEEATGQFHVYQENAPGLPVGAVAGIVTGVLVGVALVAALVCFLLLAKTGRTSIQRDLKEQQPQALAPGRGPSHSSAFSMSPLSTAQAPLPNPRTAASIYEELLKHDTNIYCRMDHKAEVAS
The assay can be described thus: flow cytometry on CHO transfectants. A general note: Flow cytometry measures light scatter and fluorescence of single cells or particles in a stream.
Protocol: (§1) After washing, FITC-labeled secondary goat anti mouse antibody was applied. Cell surface binding was analyzed utilizing a FACScalibur flow cytometer (Becton Dickinson).

Assay [5] addresses T5, human CEACAM1 (human, UniProt P13688 35-526).
T5 construct: Expressed on CHO transfectants; also called huCEACAM1; CHO-CEACAM1
T5 sequence: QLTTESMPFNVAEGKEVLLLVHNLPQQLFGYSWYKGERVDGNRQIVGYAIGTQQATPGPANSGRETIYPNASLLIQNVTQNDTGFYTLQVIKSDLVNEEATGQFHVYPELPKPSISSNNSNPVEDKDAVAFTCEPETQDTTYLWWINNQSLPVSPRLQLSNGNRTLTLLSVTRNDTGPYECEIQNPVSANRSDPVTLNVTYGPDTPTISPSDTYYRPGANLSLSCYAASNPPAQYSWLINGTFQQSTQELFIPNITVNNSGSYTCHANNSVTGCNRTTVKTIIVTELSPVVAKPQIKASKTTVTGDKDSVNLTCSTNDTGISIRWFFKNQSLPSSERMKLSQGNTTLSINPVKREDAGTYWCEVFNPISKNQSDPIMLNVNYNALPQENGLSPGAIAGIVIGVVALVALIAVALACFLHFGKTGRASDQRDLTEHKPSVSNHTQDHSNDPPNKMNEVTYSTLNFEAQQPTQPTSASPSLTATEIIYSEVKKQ
The assay can be described thus: flow cytometry on CHO transfectants.
Protocol: as §1

Assay [6] concerns the target T6, human CEACAM6-Fc (human, UniProt P40199 35-320, limits assumed).
T6 construct: also called recombinant CEACAM-Fc protein; not shown: human IgG Fc
T6 sequence (looked up): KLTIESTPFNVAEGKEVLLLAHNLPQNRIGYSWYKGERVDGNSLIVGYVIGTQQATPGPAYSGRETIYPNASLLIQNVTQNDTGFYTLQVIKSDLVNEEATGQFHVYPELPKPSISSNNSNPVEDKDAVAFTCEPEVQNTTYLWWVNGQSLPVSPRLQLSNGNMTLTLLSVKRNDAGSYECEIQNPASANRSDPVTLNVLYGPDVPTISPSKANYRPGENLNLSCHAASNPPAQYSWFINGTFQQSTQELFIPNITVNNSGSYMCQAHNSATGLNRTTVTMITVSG
The assay can be described thus: sandwich ELISA, CC1/3/5-Sab coated, CEACAM-Fc proteins in solution. For orientation: An ELISA detects its analyte on a solid surface through an enzyme-linked reagent.

The target in assay [7] is T7, human CEACAM8-Fc (human, UniProt P31997 35-320, limits assumed).
T7 construct: also called recombinant CEACAM-Fc protein; not shown: human IgG Fc
T7 sequence (looked up): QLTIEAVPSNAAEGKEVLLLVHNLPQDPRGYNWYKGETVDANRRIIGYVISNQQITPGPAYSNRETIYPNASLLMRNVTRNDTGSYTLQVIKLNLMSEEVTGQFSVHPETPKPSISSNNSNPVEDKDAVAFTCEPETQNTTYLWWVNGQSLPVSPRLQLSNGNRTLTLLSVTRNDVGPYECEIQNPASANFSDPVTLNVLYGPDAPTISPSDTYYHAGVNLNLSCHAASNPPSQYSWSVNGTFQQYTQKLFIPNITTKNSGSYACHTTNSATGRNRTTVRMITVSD
The description is as above.

Assay [8] addresses T8, CEACAM1-dN-Fc (human, UniProt P13688 143-428, limits assumed).
T8 construct: Human CEACAM1 extracellular part without the N domain, fused to Fc; also called CEACAM1 variant lacking the N domain; not shown: human IgG Fc
The assay is described as follows: solid phase ELISA, CEACAM-Fc coated (FIG. 19).

For assay [9], the target named is T9, peptide P-Q-Q-L-F-G-Y-S-W-Y (human).
T9 construct: coated on the ELISA plate
T9 peptide: PQQLFGYSWY
The assay can be described thus: solid phase peptide ELISA, mAb 5 µg/ml (FIG. 20).
Protocol: After three times washing with PBS, samples were incubated with goat anti mouse-HRP (Jackson ImmunoResearch, 1:10.000 dilution in 1% BSA/PBS, 100 µl/well). Then plates were washed three times with PBS, developed with 100 µl TMB substrate, blocked with 100 µl 0.2 M H2SO4 and measured by the TECAN-ELISA reader sunrise at 450 nm. Samples were run in triplicates. Results shown are representative for three independent repeats.

B1: CC1/3/5-Sab (antibody, V domains shown)
VH: EVQLQQSGPELVKPGTSVKMSCKASGYTFTTYVMHWVQQKPGQGLDWIGFFNPYNDGTKYNEKFKGKATLTSDKSSSTAYMELSSLTSEDSAVYYCARWAYDGSYAYWGQGTTLTVSS
VL: DIQMTQSSSYLSVFLGGRVTITCKASDHINNWLAWYQQKPGNAPRLLISGATSLETGVPSRFSGSGSGKDYTLSIISLQTEDVATYYCQQYWRTPFTFGSGTKLEIK
notes: also called mAb CC1/3/5-Sab; CC1/3/4-Sab
For the molecule B1, the binding result in assay [1] is “binds”; in [2], “binds”; in assay [3], “binds”; in assay [4], “binds”; in assay [5], “binds”; in assay [6], “no binding (tested: 0.1 µg/ml CEACAM-Fc)”. The binding result was “no binding (tested: 0.1 µg/ml CEACAM-Fc)” in [7], “no binding (tested: 5 µg/ml)” in [8] and “binds” in assay [9].
